These results are taken from patent publication US12023367B2, “Immunomodulation for the long term prevention and treatment of autoimmune diseases and foreign tissue rejection” (University of Louisville Research Foundation, Inc., priority 2015, dated 2024).

One series deals with avidin (Gallus gallus, UniProt P02701). To be noted: cited from earlier work.
The next series addresses streptavidin (Streptomyces avidinii, UniProt P22629). As to conditions: cited from earlier work.
The subject of another series is C57BL/6 mice. Description: Mixed hematopoietic allogeneic chimerism after bone marrow transplantation, 100 cGy total body irradiation, with cyclophosphamide. As to conditions: mouse, in vivo.
Series [1] has as its system STZ diabetic C57BL/6 mice. As to the kind of experiment: Allogeneic islet transplantation under the kidney capsule (BALB/c-to-C57BL/6). Format: in vivo. How it is done: FIG. 1. Systemic immunomodulation with soluble SA-FasL synergizes with SA-FasL-engineered islets for long-term survival. BALB/c islets were engineered with SA-FasL (mSA-FasL) or SA control (mSA) proteins and transplanted under the kidney capsule of STZ diabetic C57BL/6 mice. Soluble (s)SA-FasL was administered i.p. at 2-5 μg/mouse on days 1, 3, 5, 7 post-transplantation. In selected groups rapamycin was used at 0.2 mg/kg daily for 15 days starting the day of transplantation.
Treatment with soluble SA-FasL only under a short course of rapamycin was also effective, achieving >80% graft survival.

For series [2], the system named is C57BL/6 recipients of allogeneic BALB/c hearts. As to the kind of experiment: Cardiac allograft survival, BALB/c-to-C57BL/6 model. In kind it is in vivo, mice. To be noted: IL-2 7 doses or SA-FasL 15 doses i.p., no other manipulation. An excerpt: We next tested if SA-FasL as a biologic can work as an immunomodulator to prevent rejection of vascularized solid grafts. Heart transplantation from BALB/c into C57BL/6 mice was used as a stringent allogeneic heart graft model.

The test system of series [3] is STZ diabetic C57BL/6 mice. As to the kind of experiment: Intraportal allogeneic islet transplantation (BALB/c-to-C57BL/6), soluble SA-FasL. Format: in vivo. Here is the method:
FIG. 2. Survival of allogeneic islets transplanted intraportally with different treatment protocols. BALB/c islets were engineered with SA-FasL protein and transplanted intraportally into STZ diabetic C57BL/6 mice. Rapa was used daily at 0.2 mg/kg for 15 doses starting on day of transplantation. Soluble (s)FasL was used at the indicated dose and regimens.
To further establish SA-FasL as a soluble biologic, we tested its immunomodulatory capacity for the prevention of allogeneic islets transplanted using a more stringent model of intraportal islet transplantation. The rationale for this model is twofold. First, intraportal islet transplantation is the only site practiced in the clinic. Second, intraportal islet transplantation provides a much more stringent model as compared to subrenal islet transplantation. […] Therefore, we used this model to test if SA-FasL can be developed as a soluble biologic for the prevention and treatment of type I diabetes and foreign graft rejection.

Series [4] relates to NHP (rhesus monkey) PBMCs. As to the kind of experiment: Apoptosis of NHP PBMC T cells cultured with SA-FasL (Annexin V, flow cytometry). As to conditions: Teff (CD3+CD28-Fas+) or T central (CD3+CD28+Fas+) memory; PBMCs from 3 NHPs. In kind it is cell-based. How it is done:
FIG. 3. SA-FasL induces apoptosis in nonhuman primate (NHP) Teff cells. NHP (rhesus monkey) PBMCs were cultured with SA-FasL and apoptosis was assessed using Annexin V by gating on CD3^+ T cells. Cells incubated with SA served as controls. Data is representative of PBMCs from 3 NHPs.
Inasmuch as individuals with onset of autoimmunity have a large pool of activated and memory T cells, we asked if SA-FasL is capable of inducing apoptosis in such cells. For this purpose, we used nonhuman primate (NHP) peripheral blood lymphocytes (PBMCs). The PBMCs from 3 different NHPs were incubated with SA-FasL protein and apoptosis was assessed using flow cytometry.
In general terms: Flow cytometry measures light scatter and fluorescence of single cells or particles in a stream.

Another series relates to Female NOD mice. Description: Prevention of type 1 diabetes in NOD mice. In kind it is in vivo. Here is the method:
FIG. 5. Systemic treatment with SA-FasL protein delays the onset and incidence of Type 1 Diabetes in NOD. Female NOD mice were treated with the indicated agents at 10-week of age. Mice were then monitored for hyperglycemia by urine glucose test, which was confirmed by a blood glucose test. Mice with >200 mg/dl blood glucose levels were considered diabetic. Soluble (s)SA-FasL in PBS was used at 500 ng/injection intraperitoneally daily for 30 days. […] Female mice without any treatment were used as controls. In the SA-FasL only treatment group, 3 diabetic mice were treated with an additional 10 daily doses (black arrows) of SA-FasL soon after incidence of diabetes, resulting in temporary remission of hyperglycemia in ⅔ of those mice.
Inasmuch as antigen-experienced cells express Fas receptor on their surface, systemic treatment with SA-FasL has potential to eliminate such cells and control/reverse T1D without a major effect on quiescent T cell repertoire. This notion was tested by treating 10-wk female NOD mice daily with 500 ng SA-FasL protein for 30 days. […] We next asked the question if SA-FasL will work in synergy with IL-2. […] Indeed, T regulatory cells express FasL on their surface and control T effector responses by direct elimination via Fas receptor or indirectly by eliminating Fas-expressing DCs.

The test system of series [5] is STZ diabetic C57BL/6 mice. As to the kind of experiment: Intraportal allogeneic islet transplantation, SA-FasL and IL-2. In kind it is in vivo. As to conditions: soluble SA-FasL as monotherapy. Here is the method: BALB/c islets were transplanted intraportally into STZ diabetic age-matched males and females C57BL/6 mice.
These islets were then immediately transplanted intraportally into diabetic mice (450-550 islets/mouse). Mice were then treated with the indicated proteins and doses. Animals were monitored for diabetes, and those with two consecutive daily measurements of ≥250 mg/dl blood glucose level were considered diabetic and confirmation of graft failure.

Chain of avidin (P02701 25-152): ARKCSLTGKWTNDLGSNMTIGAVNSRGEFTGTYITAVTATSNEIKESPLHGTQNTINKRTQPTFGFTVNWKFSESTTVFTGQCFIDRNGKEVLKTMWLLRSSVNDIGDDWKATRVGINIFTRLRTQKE
Chain of streptavidin (P22629 25-183): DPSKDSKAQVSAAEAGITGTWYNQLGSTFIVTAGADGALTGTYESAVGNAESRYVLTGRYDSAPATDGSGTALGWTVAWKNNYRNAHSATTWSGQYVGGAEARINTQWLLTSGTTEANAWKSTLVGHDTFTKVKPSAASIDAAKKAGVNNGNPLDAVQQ

For `O=C(O)CCCC[C@@H]1SC[C@@H]2NC(=O)N[C@@H]21` [biotin], the affinity for avidin on avidin is reported as 10^15 M^−1. On streptavidin, the affinity for streptavidin was 10^13 M^−1.

Take `O=P1(N(CCCl)CCCl)NCCCO1` (stereo not shown) [cyclophosphamide]: in the series on C57BL/6 mice, the “establishment of mixed hematopoietic allogeneic chimerism” value is on record as “acted synergistically”.

B1: SA-FasL: chimeric protein of core streptavidin and the extracellular domain of FasL (rat FasL without metalloproteinase site); used unbound, in soluble form (protein)
chain: RSDYKDDDDKGTITGTWYNQLGSTFIVTAGADGALTGTYESAVGNAESRYVLTGRYDSAPATDGSGTALGWTVAWKNNYRNAHSATTWSGQYVGGAEARINTQWLLTSGATEANAWKSTLVGHDTFTKVKPSAASSGGGGSGGGGSGEFIANPSTPSETKKPRSVAHLTGNPRSRSIPLEWEDTYGTALISGVKYKKGGLVINEAGLYFVYSKVYFRGQSCNSQPLSHKVYMRNFKYPGDLVLMEEKKLNYCTTGQIWAHSSYLGAVFNLTVADHLYVNISQLSLINFEESKTFFGLYKL
B1: in [1] (soluble SA-FasL 2-5 μg/mouse i.p. on days 1, 3, 5, 7, SA-FasL-islet grafts), the “time of delayed rejection” value is on record as roughly 70 days. Besides, in series [1] (soluble SA-FasL 2-5 μg/mouse i.p. on days 1, 3, 5, 7 post-transplantation, SA-FasL-engineered BALB/c islets under kidney capsule), the “recipients with delayed rejection of allogeneic SA-FasL-islet grafts (fraction)” value was “⅛”. For the same molecule, the graft survival in series [1] (soluble SA-FasL only, under a short course of rapamycin) is greater than 80%. The “effect on cardiac graft survival, monotherapy” value in series [2] is recorded as “moderate prolongation of the grafts”. Moreover, the islet graft survival result in series [3] (4 doses of SA-FasL (2-5 μg/injection) i.v. or i.p. on days 1, 3, 5, 7, SA-FasL-engineered islets, intraportal) is on record as “All BALB/c islets engineered with SA-FasL protein survived”. Moreover, the “mice that rejected the graft” value in series [3] (soluble FasL 1 μg injection daily for 20 days from day of transplantation, no islet engineering, intraportal) is recorded as “one out of six”. In addition, the “day of graft rejection post-transplantation” value in series [3] (soluble FasL 1 μg injection daily for 20 days, the one rejecting mouse) stood at 80 days. Moreover, the toxicity entry in series [3] (soluble biologic at therapeutic doses) is on record as “without toxicity”; with Female NOD mice (500 ng SA-FasL daily for 30 days), “did not observe any sign of SA-FasL toxicity”. Moreover, in series [4], the “apoptosis of T cells” value is “Almost all T cells expressing Fas underwent apoptosis”. For the same molecule, the “onset and incidence of T1D vs controls” value in the series with Female NOD mice (500 ng SA-FasL daily for 30 days, 10-wk female NOD) is “significantly delayed the onset and incidence of T1D”. The “temporary remission of hyperglycemia (fraction of mice)” value in the series on Female NOD mice (3 diabetic mice given additional 10 daily doses of SA-FasL soon after incidence of diabetes) was “⅔”. In series [5], the “allogeneic islets whose rejection was prevented” value is reported as roughly 60%.
